Measured values published in paper PMC3931302.

Experiments:
[1] = biological target: GST-HTTex1p 51QP (expanded HTT exon 1 with the proline-rich region); assay: pull-down
[2] = biological target: GST-HTTex1p 20QP (unexpanded HTT exon 1 with the proline-rich region); assay: pull-down

Which percent of 35S-labeled PIAS1 bound [1] does the source give for “radiolabeled human PIAS1 (from UniProt O75925-1 1-651) (natural protein)” here?
The percent of 35S-labeled PIAS1 bound was 7%.

And the percent of 35S-labeled PIAS1 bound [2]?
The percent of 35S-labeled PIAS1 bound was 7.75%.
